Assay results taken from the Immune Epitope Database (IEDB).

Tests used:
[1] = target: HLA-B*51:01; test: IEDB peptide-MHC binding, purified MHC/competitive/radioactivity; filed as Kd, often an IC50 or EC50 that approximates it; ≥ and ≤ were set here for values at or beyond the usual limits of such assays
[2] = target: HLA-B*54:01; test: as above
[3] = target: HLA-B*53:01; test: as above
[4] = target: HLA-B*07:02; test: as above
[5] = target: HLA-B*35:01; test: as above
[6] = target: HLA-A*68:02; test: as above
[7] = target: HLA-A*02:06; test: as above
[8] = target: HLA-A*02:02; test: as above
[9] = target: HLA-A*02:03; test: as above
[10] = target: HLA-A*11:01; test: as above; conditions: source organism: Vaccinia virus Copenhagen
[11] = target: HLA-A*31:01; test: as above; conditions: source organism: Vaccinia virus Copenhagen
[12] = target: HLA-A*33:01; test: as above; conditions: source organism: Vaccinia virus Copenhagen
[13] = target: HLA-A*03:01; test: as above; conditions: source organism: Vaccinia virus Copenhagen
[14] = target: HLA-A*68:01; test: as above; conditions: source organism: Vaccinia virus Copenhagen
[15] = target: HLA-A*02:01; test: IEDB peptide-MHC binding, purified MHC/competitive/fluorescence; filed as Kd, often an IC50 or EC50 that approximates it; ≥ and ≤ were set here for values at or beyond the usual limits of such assays; conditions: source organism: Variola virus
[16] = target: HLA-B*08:01; test: IEDB peptide-MHC binding, purified MHC/competitive/radioactivity; filed as Kd, often an IC50 or EC50 that approximates it; ≥ and ≤ were set here for values at or beyond the usual limits of such assays
[17] = target: HLA-B*18:01; test: as above
[18] = target: HLA-B*44:02; test: as above
[19] = target: HLA-B*40:01; test: as above
[20] = target: HLA-B*45:01; test: as above
[21] = target: HLA-B*44:03; test: as above
[22] = target: HLA-B*40:02; test: as above
[23] = target: HLA-B*15:01; test: as above
[24] = target: HLA-B*18:01; test: IEDB peptide-MHC binding, purified MHC/direct/fluorescence; filed as Kd, often an IC50 or EC50 that approximates it; ≥ and ≤ were set here for values at or beyond the usual limits of such assays
[25] = target: HLA-B*46:01; test: as above; conditions: source organism: Yellow fever virus
[26] = source organism: SARS coronavirus Tor2
[27] = source organism: Mammarenavirus brazilense
[28] = source organism: Dengue virus 4 Philippines/H241/1956
[29] = source organism: Vaccinia virus Copenhagen
[30] = source organism: Vaccinia virus WR
[31] = source organism: Mammarenavirus juninense
[32] = source organism: Lassa virus Josiah
[33] = source organism: Mammarenavirus lassaense
[34] = source organism: Dengue virus 2 Jamaica/1409/1983
[35] = source organism: Lymphocytic choriomeningitis virus (strain Armstrong)
[36] = source organism: Dengue virus 1 Brazil/97-11/1997
[37] = source organism: Dengue virus 3 Martinique/1243/1999
[38] = source organism: Triticum aestivum

Sequence: APATVCGPKL
- Kd [1, 26]: 7.07 µM
- Kd [2, 26]: ≥ 69.9 µM
- Kd [3, 26]: ≥ 50 µM
- Kd [4, 26]: 0.0304 µM
- Kd [5, 26]: ≥ 69.9 µM

Sequence: APFMSDLQF
- Kd [1, 27]: ≥ 39.3 µM
- Kd [2, 27]: ≥ 36.3 µM
- Kd [3, 27]: 0.0319 µM
- Kd [4, 27]: 0.148 µM
- Kd [5, 27]: 0.00755 µM

Sequence: EIASLPTYL
- Kd [6, 28]: 0.00791 µM

Sequence: ELEKTRRKL
- Kd ([7]; source organism: Homo sapiens): ≥ 45.2 µM
- Kd ([6]; source organism: Homo sapiens): 6.99 µM

Sequence: ELNDRFANYI
- Kd ([6]; source organism: Homo sapiens): 0.0116 µM
- Kd ([8]; source organism: Homo sapiens): 0.0376 µM

Sequence: FLTSVINRV
- Kd [1, 29]: ≥ 37.2 µM
- Kd [9, 29]: 0.00563 µM
- Kd [10]: ≥ 77.9 µM
- Kd [2, 29]: 0.904 µM
- Kd [11]: ≥ 77.9 µM
- Kd [12]: ≥ 77.7 µM
- Kd [3, 29]: ≥ 61 µM
- Kd [4, 29]: ≥ 77.5 µM
- Kd [5, 29]: 19 µM
- Kd [13]: ≥ 78 µM
- Kd [8, 29]: 0.00166 µM
- Kd [14]: 9.6 µM
- Kd [15]: 0.0035 µM

Sequence: FPANINDKQI
- Kd [1, 30]: 0.145 µM
- Kd [2, 30]: 0.0138 µM
- Kd [3, 30]: 0.00877 µM
- Kd [4, 30]: 0.468 µM
- Kd [5, 30]: 0.384 µM

Sequence: FPLCANGQVF
- Kd [1, 26]: 0.0106 µM
- Kd [2, 26]: 0.358 µM
- Kd [3, 26]: 0.00194 µM
- Kd [4, 26]: 0.0871 µM
- Kd [5, 26]: 0.00184 µM

Sequence: GIRPRFLSQ
- Kd [16, 29]: 0.221 µM

Sequence: HDWHLDPPF
- Kd [17, 31]: 2.39 µM
- Kd [18, 31]: 18.5 µM
- Kd [19, 31]: ≥ 72 µM
- Kd [20, 31]: ≥ 77.7 µM
- Kd [21, 31]: 7.96 µM
- Kd [22, 31]: 0.0221 µM

Sequence: HESFDLAGLF
- Kd [17, 31]: 1.14 µM
- Kd [18, 31]: 0.175 µM
- Kd [19, 31]: 1.98 µM
- Kd [20, 31]: 1.76 µM
- Kd [21, 31]: 0.776 µM
- Kd [22, 31]: 0.435 µM

Sequence: IISTFHLSI
- Kd [7, 32]: 0.264 µM
- Kd [9, 32]: 0.0139 µM
- Kd [6, 32]: 0.652 µM
- Kd [8, 32]: 0.236 µM

Sequence: IMAVGLVSLL
- Kd [16, 28]: 0.863 µM

Sequence: IPDELIDVL
- Kd [1, 30]: 2.18 µM
- Kd [2, 30]: 12.3 µM
- Kd [3, 30]: 0.458 µM
- Kd [4, 30]: 0.373 µM
- Kd [5, 30]: 0.256 µM

Sequence: IPFNVVTAM
- Kd [1, 33]: 4.23 µM
- Kd [2, 33]: 0.504 µM
- Kd [3, 33]: 0.0739 µM
- Kd [4, 33]: 0.0185 µM
- Kd [5, 33]: 0.00525 µM

Sequence: ITASILLWYA
- Kd [7, 34]: 0.00198 µM
- Kd [6, 34]: 0.0124 µM

Sequence: KDCVMYASAL
- Kd [17, 26]: ≥ 70.5 µM
- Kd [18, 26]: 10.7 µM
- Kd [19, 26]: ≥ 60.5 µM
- Kd [20, 26]: ≥ 70 µM
- Kd [21, 26]: 11.9 µM
- Kd [22, 26]: 3.29 µM

Sequence: KDLQRLRSL
- Kd [17, 35]: 5.86 µM
- Kd [18, 35]: ≥ 43.6 µM
- Kd [19, 35]: 4.49 µM
- Kd [20, 35]: ≥ 43.1 µM
- Kd [21, 35]: ≥ 66 µM
- Kd [22, 35]: 0.165 µM

Sequence: KPESRPFDLI
- Kd [1, 30]: ≥ 69.6 µM
- Kd [2, 30]: 18.5 µM
- Kd [3, 30]: 18.6 µM
- Kd [4, 30]: 1.38 µM
- Kd [5, 30]: ≥ 69.9 µM

Sequence: LLKPRCNPA
- Kd [16, 30]: 0.00116 µM
- Kd [23, 30]: 0.0206 µM

Sequence: LPDDFMGCVL
- Kd [1, 26]: 0.0984 µM
- Kd [2, 26]: 5.49 µM
- Kd [3, 26]: 0.499 µM
- Kd [4, 26]: 0.105 µM
- Kd [5, 26]: 0.353 µM

Sequence: LPVNVAFEL
- Kd [1, 26]: 0.00114 µM
- Kd [2, 26]: 0.42 µM
- Kd [3, 26]: 0.0104 µM
- Kd [5, 26]: 0.00189 µM

Sequence: MEKLRIKGM
- Kd [18, 28]: 1.26 µM
- Kd [16, 28]: 0.0208 µM

Sequence: MEVQLIRQM
- Kd [18, 36]: 0.0173 µM
- Kd [21, 36]: 0.0189 µM
- Kd ([24]; source organism: dengue virus type 1): 0.0015 µM

Sequence: MPEKRNVVVV
- Kd [1, 30]: 2.09 µM
- Kd [2, 30]: 0.0406 µM
- Kd [3, 30]: 13.2 µM
- Kd [4, 30]: 0.194 µM
- Kd [5, 30]: 4.35 µM

Sequence: MPILTLTRAL
- Kd [1, 26]: 0.00824 µM
- Kd [2, 26]: 0.0854 µM
- Kd [3, 26]: 0.202 µM
- Kd [4, 26]: 0.00946 µM
- Kd [5, 26]: 0.0137 µM

Sequence: MPVETLFGSY
- Kd [1, 30]: ≥ 69.6 µM
- Kd [2, 30]: 0.106 µM
- Kd [3, 30]: 0.00228 µM
- Kd [4, 30]: ≥ 44 µM
- Kd [5, 30]: 0.00328 µM

Sequence: MQRKHGGML
- Kd [16, 36]: 0.17 µM
- Kd [23, 36]: 0.1 µM

Sequence: MSIISFFPF
- Kd [16, 30]: 0.857 µM
- Kd [23, 30]: 0.000168 µM

Sequence: NLYDHALMSI
- Kd [7, 32]: 0.0231 µM
- Kd [9, 32]: 0.000543 µM
- Kd [6, 32]: 0.075 µM
- Kd [8, 32]: 0.00175 µM

Sequence: NRMEIFLVL
- Kd [16, 29]: 0.00485 µM

Sequence: NSTHEMYWV
- Kd [6, 34]: 0.0921 µM

Sequence: PPFTQHLLNI
- Kd [1, 30]: 12.5 µM
- Kd [2, 30]: ≥ 69.9 µM
- Kd [3, 30]: ≥ 20.9 µM
- Kd [4, 30]: ≥ 69.6 µM
- Kd [5, 30]: ≥ 69.9 µM

Sequence: QEAYEQAVA
- Kd [17, 26]: 3.87 µM
- Kd [18, 26]: 17.3 µM
- Kd [19, 26]: ≥ 26 µM
- Kd [20, 26]: 0.0149 µM
- Kd [21, 26]: 6.86 µM
- Kd [22, 26]: 1.2 µM

Sequence: QELGHEDLM
- Kd [17, 26]: ≥ 31.8 µM
- Kd [18, 26]: 15.4 µM
- Kd [19, 26]: 5.54 µM
- Kd [20, 26]: 2.74 µM
- Kd [21, 26]: 3.71 µM
- Kd [22, 26]: 3 µM

Sequence: REFLTRNPAW
- Kd [17, 26]: ≥ 33.4 µM
- Kd [18, 26]: 0.00402 µM
- Kd [19, 26]: 0.0502 µM
- Kd [20, 26]: 0.569 µM
- Kd [21, 26]: 0.00583 µM
- Kd [22, 26]: 0.0235 µM

Sequence: RLFTKVKPLL
- Kd ([7]; source organism: Homo sapiens): 4.04 µM
- Kd ([9]; source organism: Homo sapiens): 0.096 µM
- Kd ([6]; source organism: Homo sapiens): 13.6 µM

Sequence: SEQGEFKLL
- Kd ([24]; source organism: Yellow fever virus 17D): 0.875 µM

Sequence: SEYKGPVTDV
- Kd [17, 26]: ≥ 70.5 µM
- Kd [18, 26]: 17.1 µM
- Kd [19, 26]: 1 µM
- Kd [20, 26]: 0.0372 µM
- Kd [21, 26]: 0.795 µM
- Kd [22, 26]: 0.0229 µM

Sequence: SFKFRPGSL
- Kd [16, 30]: 0.00298 µM

Sequence: SIFIRMLIL
- Kd [16, 29]: 0.0101 µM

Sequence: SPNLAWPLIV
- Kd [1, 26]: 2.79 µM
- Kd [2, 26]: 0.556 µM
- Kd [3, 26]: 1.66 µM
- Kd [4, 26]: 0.123 µM
- Kd [5, 26]: 0.887 µM

Sequence: SRISRFANL
- Kd [16, 30]: 0.0196 µM

Sequence: STFVSAARQG
- Kd [17, 26]: 8.68 µM
- Kd [18, 26]: 0.237 µM
- Kd [19, 26]: 8.59 µM
- Kd [20, 26]: 2.01 µM
- Kd [21, 26]: 0.394 µM
- Kd [22, 26]: 0.535 µM

Sequence: TASLVMLLV
- Kd ([6]; source organism: Dengue virus 4 Dominica/814669/1981): 0.0825 µM

Sequence: TSAWVMYGT
- Kd [6, 28]: 0.0017 µM

Sequence: TVVVGDIIGV
- Kd [7, 37]: 0.00244 µM
- Kd [6, 37]: 0.00187 µM

Sequence: VLIEVNPPF
- Kd [25]: ≥ 20 µM

Sequence: VSRQEKGKSL
- Kd ([16]; source organism: Dengue virus 2 Peru/IQT2913/1996): 0.967 µM

Sequence: YAKSKRMAE
- Kd [16, 30]: 0.0311 µM

Sequence: YENAFLPFT
- Kd [17, 26]: 0.112 µM
- Kd [18, 26]: 1.65 µM
- Kd [19, 26]: 6.12 µM
- Kd [20, 26]: 0.0936 µM
- Kd [21, 26]: 0.857 µM
- Kd [22, 26]: 0.0364 µM

Sequence: YEQVVMDYL
- Kd [17, 26]: 0.349 µM
- Kd [18, 26]: 0.371 µM
- Kd [19, 26]: 0.000609 µM
- Kd [20, 26]: 3.78 µM
- Kd [21, 26]: 0.298 µM
- Kd [22, 26]: 0.0302 µM

Sequence: YPSGQGSF
- Kd [1, 38]: 0.998 µM
- Kd [2, 38]: 13.3 µM
- Kd [3, 38]: 5.15 µM
- Kd [4, 38]: 11.1 µM
- Kd [5, 38]: 4.88 µM
